According to US20210253725A1 (BIONTECH, published 2021):
Residue numbers refer to the chain shown, from its start. In names and notes the source's numbering stands.

T1: CD134 expressed on the cell surface of HT1080_OX40 cells (human, UniProt P43489 29-277)
T1 construct: whole, on cells; species not restated for the HT1080 transfectant
T1 sequence (looked up): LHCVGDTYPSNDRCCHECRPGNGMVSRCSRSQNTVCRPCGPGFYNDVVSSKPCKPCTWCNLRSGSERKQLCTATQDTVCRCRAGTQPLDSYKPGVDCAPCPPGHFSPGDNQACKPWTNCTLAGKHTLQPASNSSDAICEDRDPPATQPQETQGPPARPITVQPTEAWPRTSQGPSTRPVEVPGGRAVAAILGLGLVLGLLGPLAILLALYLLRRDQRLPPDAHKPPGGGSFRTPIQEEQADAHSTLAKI

T2: CD134 protein (His-tagged, Sino Biological Inc. 10481-H08H) (human, UniProt P43489 29-216)
T2 construct: bought protein coated on ELISA plates; also called OX40; TNFRSF4; not shown: His tag
T2 sequence (looked up): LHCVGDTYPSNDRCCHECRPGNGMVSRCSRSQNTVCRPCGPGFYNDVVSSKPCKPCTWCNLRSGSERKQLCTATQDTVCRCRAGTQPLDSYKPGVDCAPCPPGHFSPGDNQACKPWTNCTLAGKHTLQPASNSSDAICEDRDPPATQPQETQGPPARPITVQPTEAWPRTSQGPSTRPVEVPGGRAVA

B1: P018.S.11.A.B03 (antibody, V domains shown)
VH: QSLEESGGRLVTPGTPLTLTCTVSGFSLSNYAMSWVRQAPGKGLEWIAIISGSGSTNYASWAKGRFTLSKASTTVALKITSPTTEDTATYFCGRGRDDDYAWDLWGQGTLVTVSS
VL: DVVMTQTPASVSEPVGGTVTIKCQASQTISNYLAWYQQKPGQPPKLLIYAASTLASGVSSRFRGSGSGTEFSLTISDLESADAATYYCHCTYYDSSYHGFGGGTEVVVK
notes: V regions on human Ig constant parts; also called AB134_24
B2: P018.S.11.A.G02 (antibody, V domains shown)
VH: QSVEESGGRLVTPGTPLTLTCTVSGFSLSGYDMSWVRQAPGKGLEWIGYIYGGNTYYANWAKGRFTISKTSTTVDLKMTSPTTEDTATYFCTRVGAGYSGVWAYFNLWGPGTLVTVSS
VL: AQVLTQTPSSVSAAVGGTVTINCQSSQSVDSDNYLAWYQQKPGQPPKLLIYDTSKLASGVPSRFTGSGSGTQFTLTISGVQSDDAATYYCQGTYYNAGWYFAFGGGTEVVVK
notes: V regions on human Ig constant parts; also called AB134_42
B3: P018.S.04.A.B04 (antibody, V domains shown)
VH: QSLEESGGRLVTPGTPLTLTCTASGIDLNNYAMSWVRQAPGKGLEWIGIISGAGYTYYTTWAKGRFTISKTSTTVDLKITSPTTEDTATYFCARIYDSYGYAYVPYYDMDLWGPGTLVTVSS
VL: AAVLTQTPSPVSTAVGGTVTINCQSSQSVFMNNYLSWYQQKPGQPPKLLIYDASTLASRVPDRFSGSGSGTQFTLTISGVQSDDAAAYYCLGGYDDDSATTFGGGTEVVVE
notes: V regions on human Ig constant parts; also called AB134_6
B4: P018.S.12.A.C03 (antibody, V domains shown)
VH: QEQLKESGGDLVTPGTPLTLTCTVSGFSLSSYAMAWVRQAPGKGLEYIGFIDTDGSAYYASWAKGRFTISRTSTTVDLKITSPTTEDTATYFCAGDSYGYAGFVYFNLWGPGTLVTVSS
VL: DVVMTQTPASVSEPVGGTVTIKCQASQNIYSSLAWYQQKPGQPPKLLIYDASDLASGVPSRFKGSGSGTQFTLTISDLESDDAATYYCQCSYYGVDYVGGFGGGTEVVVK
notes: V regions on human Ig constant parts; also called AB134_63
B5: P018.S.11.A.D04 (antibody, V domains shown)
VH: QSVEESGGRLVTPGTPLTLTCTVSGFSLNSYDMSWVRQAPGKGLEWIGFISASGSIYFASWAKGRFTISKTSTTVDLKITSPTTEDTATYFCASDSYGWAYVYYFNLWGPGTLVTVSS
VL: AVVLTQTPASVSPAVGGTVTINCRASEDIGSYLGWYQQKPGQPPKLLMHDASDLASGVPSRFSGSGSGTEFTLTISGVQSDDAATYYCQSAWYSSNTDKMAFGGGTEVVVK
notes: V regions on human Ig constant parts; also called AB134_31
B6: P018.S.12.A.G04 (antibody, V domains shown)
VH: B5 VH with S53I, G54D, S55N, I56T, F58Y
VL: B5 VL with P13A, A14T, M48I, N96D, T97S
notes: V regions on human Ig constant parts; also called AB134_86
B7: P018.S.12.A.H05 (antibody, V domains shown)
VH: QSLEESGGDLVKPGASLTLTCTASGFSFDIDYYMCWVRQAPGKGLEWIACIYAGSSGSTYYASWAKGRFTISKTSSTTVTLQMPSLTAADTATYFCARHYAGYAGDAYATDYYFNLWGRGTLVTVSS
VL: DIVMTQTPSSVSATVGDTVTINCQASQSVSNFLAWYQQKPGQPPKPLIYGASNLESGVPSRFRGSGSGTEFTLTISGMKAEDAATYYCQSGYYSATFGAGTKVEIK
notes: V regions on human Ig constant parts; also called AB134_91
B8: P018.S.12.A.A01 (antibody, V domains shown)
VH: QSVEESGGRLVTPGTPLTLTCTVSGFSLSSYAMIWVRQAPGKGLEYIGYISYDGSTYYASWVKGRFTISKTSTTVDLKMTSLTTEDTATYFCARARIDDGYGNLWGQGTLVTVSS
VL: DVVMTQTPASVSEPVGGTVTIKCQASESISNYLAWYQQKPGQPPKLLIYAASYLASGVPSRFRGSGSGTEFTLTISDLESADAATYYCQCTYVASTYVGTFGGGTEVVVK
notes: V regions on human Ig constant parts; also called AB134_50
B9: P018.S.11.A.F04 (antibody, V domains shown)
VH: QSVEESGGRLVTPGTPLTLTCTVSGFSLSRYTMGWVRQAPGKGLEYIGIIYGDDNTYYASWAKGRLTISKTSSTTVDLKITSPTTEDTATYFCASCAPIYYNTFSFNLWGQGTLVTVSA
VL: AYDMTQTPASVEVAVGGTVTIKCQASQTIGGSLSWYQQKPGQPPKLLIYAAATLASGVPSRFKGSGSGTQFTLTISGVESDDAATYYCQQHYTGDNVNNPFGGGTEVVVK
notes: V regions on human Ig constant parts; also called AB134_40
B10: P018.S.12.A.C02 (antibody, V domains shown)
VH: QEQLVESGGGLVQPEGSLTLTCTASGFSFSNNAMCWVRQAPGKGLEWIACIYDGSSGSTYYATWAKGRFTISKTSSTTVTLQMTSLTAADTATYFCARAYGGYTVYDYAFNLWGPGTLVTVSS
VL: DVVMTQTPASVSEPVGGTVTIKCQASQSIGSDLAWYQQKPGQPPKLLIYYTTNLETGVSSRFKGSRSGTEYALTISDLESADAATYYCQYGVRSTYSFGGGTEVVVK
notes: V regions on human Ig constant parts; also called AB134_62
B11: P018.S.11.A.F05 (antibody, V domains shown)
VH: QSLEESGGRLVTPGTPLTLTCTVSGFSLSRYHMSWVRQAPGKGLEYIGYIHTDDTNWYASWAKGRFTISKTSTTVDLKITSPTTEDTATYFCARVSSVGGYYFDLWGQGTLVTVSS
VL: DVVMTQTPASVSEPVGGTVTIKCQASEDIYNLLAWYQQKPGQPPKLLIYAASTLASGVPSRFKGSGSGTQFTLTISDLESADAATYYCQNNYLISSYGVGFGGGTEVVVK
notes: V regions on human Ig constant parts; also called AB134_41
B12: P018.S.12.A.E05 (antibody, V domains shown)
VH: QSVEESGGRLVTPGGSLTLTCTASGFDLSSYATSWVRQAPGKGLEWIGIIYGSGSTTYASWVKGQFTISKSSSTTVDLKMTSLTTEDTATYFCARGLVASTDNYNLWGPGTLVTVSS
VL: AAVLTQTPSPVSVAVGGTVTINCQASQSVYNNNYLAWFQQKPGQPPKLLIYLASILASGVPSRFKGSGSGTQFTLTINGVQSDDAATYYCLGDVGGGERVFGGGTEVVVK
notes: V regions on human Ig constant parts; also called AB134_76
B13: P018.S.12.A.B01 (antibody, V domains shown)
VH: QEQLVESGGGLVQPEGSLTLTCKASGFDFSYNSMCWVRQAPGKGLEWITCIYNGDGSTWYASWAKGRFTISKTSSTTVTLQMTSLTAADTATYFCTRDFGLWGPGTLVTVSS
VL: ALVMTQTPSSTSEPVGGTVTINCQASESVANHKQLSWYQQKPGQPPKVLIYYASTLASGVPSRFKGSGSGTQFTLTISDVVSDDAATYYCSGYKSISTDGNAFGGGTEVVVK
notes: V regions on human Ig constant parts; also called AB134_56
B14: P018.S.12.A.G03 (antibody, V domains shown)
VH: QSLEESGGRLVTPGGSLTLTCTLSGIDLSSNAISWVRQAPGKGLEWIGIIFPGDNIYYATWAKGRFTISKTSTTVDLKMTSLRTADTATYFCARYHADDSVDLWGPGTLVTVSS
VL: AYDMTQTPASVSEPVGGTVTIKCQASQSINGWLSWYQQKPGQRPRLLIYRASDLAPGVSSRFKGSGSGTQFTLTISDVESADAATYYCHLGDIYSNIDYVFGGGTEVVVK
notes: V regions on human Ig constant parts; also called AB134_85
B15: P018.S.11.A.B06 (antibody, V domains shown)
VH: QSVEESGGRLVTPGTPLTLTCTASGFSLINYNMGWVRQAPGEGLEWIGTILTDGTVYYSNWAKGQFTISKTSTTVDLEMTSPTNEDTATYFCARDYPSYIAFDLWGPGTLVTVSS
VL: AQVLTQTASSVSAAVGGTVTINCQASQSVYNDDNLAWLQQKPGQPPKLLIYGASSLASGVPSRFSGSGSGTEFTLTISGVQSEDAAIYYCQGGGFSSGWYWAFGGGTEVVVK
notes: V regions on human Ig constant parts; also called AB134_27
B16: P018.S.02.A.F01 (antibody, V domains shown)
VH: QSVEESGGRLVTPGTPLTLTCTVSGFSLSSYAMSWVRQAPGKGLEWIGIISSSGVTYYASWAKGRFTISKTSTTVDLRITGPTTEDTATYFCARDPGYSTGWDYFFRLWGQGTLVTVSS
VL: AIKMTQTPASVSAAVGGTVSINCQASEDIESYLAWYQQKPGQPPKLLIYDASDLPSGVPSRFKGSGSGKQFTLTISGVQSDDAATYYCQHGAYTSSSDFFYAFGGGTEVVVK
notes: V regions on human Ig constant parts; also called AB134_1

What follows are binders tested against T1, CD134 expressed on the cell surface of … (assay: HT1080_OX40 cells, imaging).
Note: test concentration or dose not given here.

Row | Binder | Cellular binding assay [RFU]
1 | B1 | 527 RFU
2 | B2 | 357 RFU
3 | B3 | 331 RFU
4 | B4 | 483 RFU
5 | B5 | 530 RFU
6 | B6 | 534 RFU
7 | B7 | 527 RFU
8 | B8 | 600 RFU
9 | B9 | 486 RFU
10 | B10 | 571 RFU
11 | B11 | 396 RFU
12 | B12 | 523 RFU
13 | B13 | 607 RFU
14 | B14 | 452 RFU
15 | B15 | 441 RFU
16 | B16 | 498 RFU

These binders were tested against T2, CD134 protein (His-tagged, Sino …) (assay: ELISA, coated His-tagged CD134).

Row | Binder | ELISA [abs. corr.]
17 | B1 | 2.66 abs. corr.
18 | B2 | 1.07 abs. corr.
19 | B3 | 3.21 abs. corr.
20 | B4 | 1.96 abs. corr.
21 | B5 | 2.07 abs. corr.
22 | B6 | 2.08 abs. corr.
23 | B7 | 2.37 abs. corr.
24 | B8 | 2.41 abs. corr.
25 | B9 | 2.25 abs. corr.
26 | B10 | 2.05 abs. corr.
27 | B11 | 1.67 abs. corr.
28 | B12 | 1.93 abs. corr.
29 | B13 | 2.34 abs. corr.
30 | B14 | 2.52 abs. corr.
31 | B15 | 2.13 abs. corr.
32 | B16 | 2.69 abs. corr.

The binders below were run against T1, CD134 expressed on the cell surface of … (assay: cell-based or functional assay).

Row | Binder | Functional assay Cross-linked by F(ab′)2 fragment IL-8 | Functional assay IL-8
33 | B1 | 2.1 abs. corr. | -0.075 abs. corr.
34 | B2 | 2.06 abs. corr. | 0.27 abs. corr.
35 | B3 | 2.11 abs. corr. | 1.99 abs. corr.
36 | B4 | 2.11 abs. corr. | 0.238 abs. corr.
37 | B5 | 2.04 abs. corr. | 0.38 abs. corr.
38 | B6 | 1.99 abs. corr. | 0.407 abs. corr.
39 | B7 | 2.19 abs. corr. | 0.348 abs. corr.
40 | B8 | 2.14 abs. corr. | 0.071 abs. corr.
41 | B9 | 2.11 abs. corr. | 0.568 abs. corr.
42 | B10 | 2.14 abs. corr. | 0.936 abs. corr.
43 | B11 | 2.15 abs. corr. | 0.33 abs. corr.
44 | B12 | 2.11 abs. corr. | 0.132 abs. corr.
45 | B13 | 2.11 abs. corr. | 0.396 abs. corr.
46 | B14 | 2.1 abs. corr. | 0.209 abs. corr.
47 | B15 | 2.1 abs. corr. | 0.403 abs. corr.
48 | B16 | 2.34 abs. corr. | 0.115 abs. corr.
